Measured values published in IntAct's records for PubMed 10602480.

B1: Death-associated protein kinase 3 (Rattus norvegicus (Rat)), O88764 (parent)
chain: MSTFRQEDVEDHYEMGEELGSGQFAIVRKCQQKGTGMEYAAKFIKKRRLPSSRRGVSREEIEREVSILREIRHPNIITLHDVFENKTDVVLILELVSGGELFDFLAEKESLTEDEATQFLKQILDGVHYLHSKRIAHFDLKPENIMLLDKHAASPRIKLIDFGIAHRIEAGSEFKNIFGTPEFVAPEIVNYEPLGLEADMWSIGVITYILLSGASPFLGETKQETLTNISAVNYDFDEEYFSSTSELAKDFIRRLLVKDPKRRMTIAQSLEHSWIKVRRREDGARKPERRRLRAARLREYSLKSHSSMPRNTSYASFERFSRVLEDVAAAEQGLRELQRGRRQCRERVCALRVAAEQREARCRDGSAGLGRDLRRLRTELGRTEALRTRAQEEARAALLGAGGLKRRLCRLENRYDALAAQVAAEVQFVRDLVRALEQERLQAECGVR
partner: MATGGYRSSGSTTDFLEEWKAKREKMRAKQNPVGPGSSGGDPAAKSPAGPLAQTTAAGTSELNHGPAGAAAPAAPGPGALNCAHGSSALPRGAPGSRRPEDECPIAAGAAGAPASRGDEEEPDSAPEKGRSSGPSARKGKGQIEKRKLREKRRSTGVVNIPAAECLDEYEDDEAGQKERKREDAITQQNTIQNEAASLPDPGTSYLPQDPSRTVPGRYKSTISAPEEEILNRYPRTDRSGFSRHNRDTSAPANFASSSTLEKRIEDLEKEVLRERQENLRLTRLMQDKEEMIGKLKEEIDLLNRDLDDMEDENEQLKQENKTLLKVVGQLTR

Variants of: B1
Conditions: with pawr_rat Pawr

| Variant | effect of a mutation on the interaction |
| --- | --- |
| K42A | disrupting interaction |
